Laboratory results from the nanobody polyreactivity screen of Harvey et al. (2022).

Assay: yeast display, Sf9 membrane polyspecificity reagent, FACS + sequencing; frameworks hold sequencing errors
In short: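 A nanobody's polyreactivity label depends on the gate it was sorted from. Yeast display cells were stained with 10% biotinylated, detergent-solubilized Sf9 membrane reagent for 1 hour at 4 °C, enriched on streptavidin microbeads and sorted by FACS. The low and high (top ~1%) gates were set on anti-HA fluorescence for expression and streptavidin fluorescence for reagent binding.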

| Sequence | polyreactivity (PSR sort gate) |
| --- | --- |
| QVQLVESGGGLVQAGGSLRLSCAASGRSFNPYAMGWYRQAPGKERELVAAITNSGGSTYYADSVKVRFTISRDTAMNTFYLQMNSLKPEDTAVYYCNARRYPRYYYWGQGTQVTGSS | high polyreactivity |
| QVQLVESGGGLVQAGGSLRLSCAASGRSFNYNTMGWYRQAPGKERELVAAINKGGTRTYYADSVKGRFTISRDNAKNTVYLQMNSLKPEDTAVYYCAARLYSYDYWGQGTQVTVSS | high polyreactivity |
| QVQLVESGGGLVQAGGSLRLSCAASGRSFRPYARGWYRQAPGKERELVAAISSSGGSTYYADSVKGRFTISRDNAKNTVYLQMNSLKPEDTAVYYCATYFARGYNSWGQGTQVTVSS | high polyreactivity |
| QVQLVESGGGLVQAGGSLRLSCAASGRSFRYNAMGWYRQAPGKARELVAAISSGGSTNYADSVKGRFTTTRDNAKNTVYLQMNSLKPEDTAVYYCNAVYVHRYPGWGYDYWGQGTQVTVSS | low polyreactivity |
| QVQLVESGGGLVQAGGSLRLSCAASGRSFVLNAMGWYRQAPGKDRELVAAISSGGSTNYADSVKWRFTISRDNAKNTDYLQMNSLKPEDTAVYYCAGQDVNEYSAYYYWGQGTQVTGSS | low polyreactivity |
| QVQLVESGGGLVQAGGSLRLSCAASGRSFVSYAMGWYRQAPGKERELVASITSSDGTNYADSVKGRFTISRDNEKNTVYLQMNSLKPEDTAVFYCNKDGFTTDRIGPTSDYWGQGTQVTVSS | low polyreactivity |
| QVQLVESGGGLVQAGGSLRLSCAASGRSIWYYTMGWYRQAPGKERQFFAAITTSGGSTTYADSVKGRYTISRDTAKNTVFLQRNSLKPEDSAVYYCAARVYHGKSKYDYWGQGSQVTVSS | high polyreactivity |
| QVQLVESGGGLVQAGGSLRLSCAASGRTCAAYAMGWYRQAPGKERELVAAISIGGSTNYADSVKGRFTISRDNAKNTVYLQLNSLKPEDTAVYYCAAGTWAVSKYLEWLEFYYWGQGTQVTVSS | high polyreactivity |
| QVQLVESGGGLVQAGGSLRLSCAASGRTCIDKAMGWYRQAPGKERELVAAITKGARTYYADSVKGRFTISRDNAKNTVYLQMISLKPEDTGVYYCASVSYTQSHAYWGTGYRYGYWGQGTQVTVSS | high polyreactivity |
| QVQLVESGGGLVQAGGSLRLSCAASGRTCVGNAMGWYRQAPGKERELVAAIRRGGDSTYYADSVKGRFTISRDNAKNTVYLQMNSLKPEDTAVSYCNAVSLQPYRGGFDYWGQGTQVTVSS | low polyreactivity |
| QVQLVESGGGLVQAGGSLRLSCAASGRTCWDYAMGWYRPAPGKERELVAAITWGGGSTYYADSVKGRFTISRDNAKNTVYLQMNSLKPEDTAVYYCAADTKGWGQGTQVTVSS | low polyreactivity |
| QVQLVESGGGLVQAGGSLRLSCAASGRTCYDNTMGWSRQAPGTEREFVADITGSGGSTHYADSVKGRFTISRDNAKNTVYLQLNSLKPEDTAVYYCAADYRYNRGITSNKDYDYWGQGTQVTVSS | low polyreactivity |
| QVQLVESGGGLVQAGGSLRLSCAASGRTCYNTMGWYRQSPGKERELVAAISRGGITNYADSVKGRFTISRDNAKNTVYLQMNSLKPADTAVYYCIAEPKRYYYYYKFDYWGQGTQVTVSS | high polyreactivity |
| QVQLVESGGGLVQAGGSLRLSCAASGRTFADYGMGWYRQAPGKERELVAAITSSGGSTYYADSVKGRFTISRDNAKNTVYLQMNSLKPEDTAVYYCAAQQSPSVDYWGQGTQVTVTS | low polyreactivity |
| QVQLVESGGGLVQAGGSLRLSCAASGRTFAFYTMGWYRQAPGKERELVAAITRTGSTSYADSVKGRFTISRDNAKNTVYLQMNSLKPEDTAVYYCATVGYPYTLWHQMDYWGQGTQVTVSS | low polyreactivity |
| QVQLVESGGGLVQAGGSLRLSCAASGRTFAGNAMGWYRQAPGKEREFVASITASGVNTYYADSVKGRFTISRDNAKNTVYLQMNSLKPEDTAVYYCNKRNRWTPFYTYEYWGQGTQVTVSS | low polyreactivity |
| QVQLVESGGGLVQAGGSLRLSCAASGRTFAGYAMGWYRHAPGKETELVAAITTSGGRTYYADSVKGRFTISRDYAKNTVYLQMNSLKPEDTAVYYCNVASKGRYARYAAEYGYWGQGTQVTVSS | high polyreactivity |
| QVQLVESGGGLVQAGGSLRLSCAASGRTFAINAMGGYRQAPGKERELVATIDRSGGSTYYADSVKGRFTISRDNAKNTVYLQMNRLKPEDTAVYYCAADYPVRSYDYWGQGTQVTVSS | low polyreactivity |
| QVQLVESGGGLVQAGGSLRLSCAASGRTFAINAMGWYRQAPGKERELVADITTDGSTYYADSVKGRFTISRDNAKNTVYLQMNSLKPEDTAVYYCATDSLDYFIRFKQFGYWGQGTQVTVSS | low polyreactivity |
| QVQLVESGGGLVQAGGSLRLSCAASGRTFAIYAMGWYRQAPGIEREFVAAISWSGGDTYYADSVKGRFTISRDNAKNTVYLQMNSLKPEDTAVYYCAARDNDYEGRDLQYELDYWGQGTHVTVSS | low polyreactivity |
| QVQLVESGGGLVQAGGSLRLSCAASGRTFAIYAMGWYRQAPGKEREFVAAISWSGCSTYADSVKGRFTISRDNAKNTVYLQMNSLKPEDTAVYYCAKTILYDCDYWGQGTQVTVSS | low polyreactivity |

| Sequence | polyreactivity (PSR sort gate) |
| --- | --- |
| QVQLVESGGGLVQAGGSLRLSCAASGRTFAIYVMGWYRHAPGKERELVAAITRVGSTYADSVKGRFTISRDNAKNTVYLQMNSLKPEDTAVYYCAAVSGVRSGPWRYDYWGQGTQVTVSS | high polyreactivity |
| QVQLVESGGGLVQAGGSLRLSCAASGRTFAIYVMGWYRQAPGKEMELVAAISRGGSTYYADSVKGRFTISRDNAKNTVYLQMNSLKPEDTAVYYCAAGTGTTSRYYYWGQGTQVTVSS | high polyreactivity |
| QVQLVESGGGLVQAGGSLRLSCAASGRTFAKYAMGWYRQAPGKERELVAAINSSGGSTYYADSVKGRFTISRDNAKNTVYLQMNSLKPEDTAVYYCAALGIGSYRRYSGYDYWGQGTQVTVSS | low polyreactivity |
| QVQLVESGGGLVQAGGSLRLSCAASGRTFANYAMGWYRQAPGKERELVAAISWSGGSTYYADSVKGRFTISRDNAKNSVYLQMNSLKPEDTAVYYCAALAGRAYGYGYWGQGTQVTVSS | high polyreactivity |
| QVQLVESGGGLVQAGGSLRLSCAASGRTFANYAMGWYTQAPGKERELVAAITSGGRTYYAVSVKGRFTISRDNAKNTVYLQMNSLKPEDTAVYYCAATRYRVYAQNYDYWGQGTQVTVSS | high polyreactivity |
| QVQLVESGGGLVQAGGSLRLSCAASGRTFAQNAMGWYRQAPGKERELVAAITASGSITYYADSVKGRFTISRDNAKNTVYLQMNSLKPEDTAVSYCAARGRYHFFSKYDYWGQGTQVTVSS | high polyreactivity |
| QVQLVESGGGLVQAGGSLRLSCAASGRTFARYAMGWYRPAPGKERELVASITRTGGSTYYADSVKGRFTISRDNAKNTVYFQLNSLKPEDTAVYDCATQSWKVRSKMDYWGQGTQVTVSS | high polyreactivity |
| QVQLVESGGGLVQAGGSLRLSCAASGRTFARYARGWYRPAPGKERELVAAISSSGGSTYYADSVKGRFTISRDNAKNTVYLQMNSLKPEDTSVYYCVTYRNWWYDYWGQGTQVTVSS | high polyreactivity |
| QVQLVESGGGLVQAGGSLRLSCAASGRTFASNAMGWSRQAPGKERELVAAITRGGSTNYADSVKGRFTISRDNAKNTVYLQMNSLKPEDTAVYYCAARLSSGFRSYYYWGQGTQVTVSS | high polyreactivity |
| QVQLVESGGGLVQAGGSLRLSCAASGRTFASNDMGWYRQAPGKERELVADINNGARTYYADSVKGRFTISRDNAKNTVYLQMNSLKPEDTAVYYCNTRSGFYLGDFDYWGQGTQVTVSS | high polyreactivity |
| QVQLVESGGGLVQAGGSLRLSCAASGRTFASYAMGWYRQAPGKERELVAGITSGGNTYYADSVKGRFTISRDNAKNTVYLQMNSLKPEDTAVYYCAADRVYLGLFRYEYWGQGTQVTVSS | high polyreactivity |
| QVQLVESGGGLVQAGGSLRLSCAASGRTFASYDMGWYRQAPGKEREVVAVIRSGGSTKYADSVKGRFTISRDNAKNTVYLQMNSLKPEDTAVYYCARTYAKTYLSVYLFYYWGQGTQVTVSS | low polyreactivity |
| QVQLVESGGGLVQAGGSLRLSCAASGRTFATNAMGWYRQAPGKERELVADISGGGSTYYADSVKGRFTISRDNAKNTVYLQMNSLKPEDTAVYYCAARDYHWFQWYDYWGQGTQVTVSS | low polyreactivity |
| QVQLVESGGGLVQAGGSLRLSCAASGRTFATNAMGWYSQAPGKERELVAGINGSGSTNYADSVKGRFTISRDNAKNTVYLQMNSLKPEDTAVYYCAAYVGLYYRLHYYYWGQGTQVTVSS | low polyreactivity |
| QVQLVESGGGLVQAGGSLRLSCAASGRTFATNARGWYRQAPGKERELVAGINGSGSTNYADSVKGRFTISRDNAKNTVYLQMNSLKPEDTAVYYCAAYVGLYYRLHYYYWGQGTQVTVSS | low polyreactivity |
| QVQLVESGGGLVQAGGSLRLSCAASGRTFAVYAMGWYRQAPGKERELVAAITLGASRTYYADSVKGRFTISRDNAKNTVYLQMNSLKPEDTAVYYCNAVGRRNVDSSLNDYWGQGTQVTVSS | low polyreactivity |
| QVQLVESGGGLVQAGGSLRLSCAASGRTFAWNAMGWYRQAPRKERELVARIRSSGSTYYADSVKGRFTISRDNAKNTVYLQMNSLKPVDTAVYFCAADIRFWYGYYYWGQGTQVTVSS | high polyreactivity |
| QVQLVESGGGLVQAGGSLRLSCAASGRTFAWYAMGRYRQAHGKERELVAVIRRGSGDTYYADSVKARFTISRDNAKNTVYLQMNSLKTEDTAVYYCAAEGRFSFYGGGRTKYSRYDYWGQGTQVTVSS | high polyreactivity |
| QVQLVESGGGLVQAGGSLRLSCAASGRTFAWYAMGWYRQAPGKERELVAAISWSSDTTYYADSVKGRFTITRDNAKNTVYLQMNSLKPEETAVYYCAAVFQGYTRKYYYWGQGTQVTVSS | high polyreactivity |
| QVQLVESGGGLVQAGGSLRLSCAASGRTFAWYAMGWYRQAPGKERELVAVIRRGSGDTYYADSVKGRFTISRDNAKNTVYLQMNSLKPEDTAVYYCAAEGRFSFYGGGRPKYSRYDYWGQGTQVTVSS | high polyreactivity |
